Patent publication US20100329990

Target: TTE (TBF-EGFP fusion with the TEV protease recognition sequence ENLYFQG, flanked by 4 glycines on each side, between TBF and EGFP)

B1: TEV protease (Gibco-Life Technologies) (protein)
chain: GESLFKGPRDYNPISSTICHLTNESDGHTTSLYGIGFGPFIITNKHLFRRNNGTLLVQSLHGVFKVKNTTTLQQHLIDGRDMIIIRMPKDFPPFPQKLKFREPQREERICLVTTNFQTKSMSSMVSDTSCTFPSSDGIFWKHWIQTKDGQCGSPLVSTRDGFIVGIHSASNFTNTNNYFTSVPKNFMELLTNQEAQQWVSGWRLNADSVLWGGHKVFMSKPEEPFQPVKEATQLMNELVYSQ
- cleavage of TTE by TEV protease, followed by time-gated emission spectra (loss of Tb3+ to EGFP energy transfer): The absence of the chromophore peak at 510 nm indicates that the energy transfer system from Tb^3+ to the chromophore is diminished.
